Assay [1] concerns the target T1, human calcitonin receptor (human, UniProt P30988 25-474).
T1 sequence (looked up): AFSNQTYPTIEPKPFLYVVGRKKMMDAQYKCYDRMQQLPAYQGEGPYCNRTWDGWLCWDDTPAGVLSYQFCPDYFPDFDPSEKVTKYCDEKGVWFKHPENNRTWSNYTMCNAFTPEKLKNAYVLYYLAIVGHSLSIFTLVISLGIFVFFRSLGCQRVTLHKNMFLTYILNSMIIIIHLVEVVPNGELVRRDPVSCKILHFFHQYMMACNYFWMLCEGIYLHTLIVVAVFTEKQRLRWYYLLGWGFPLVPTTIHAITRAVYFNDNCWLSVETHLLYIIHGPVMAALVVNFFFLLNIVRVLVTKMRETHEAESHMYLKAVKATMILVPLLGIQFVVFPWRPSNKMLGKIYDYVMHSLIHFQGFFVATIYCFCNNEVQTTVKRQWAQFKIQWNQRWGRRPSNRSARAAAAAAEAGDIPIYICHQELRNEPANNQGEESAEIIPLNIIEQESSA
The assay can be described thus: cell-based or functional assay.

Assay [2] has as its target T2, human amylin receptor (amylin 3(a) receptor: human calcitonin receptor with RAMP-3) (human, UniProt P30988 25-474; O60896 24-148).
T2 sequence (looked up) 1: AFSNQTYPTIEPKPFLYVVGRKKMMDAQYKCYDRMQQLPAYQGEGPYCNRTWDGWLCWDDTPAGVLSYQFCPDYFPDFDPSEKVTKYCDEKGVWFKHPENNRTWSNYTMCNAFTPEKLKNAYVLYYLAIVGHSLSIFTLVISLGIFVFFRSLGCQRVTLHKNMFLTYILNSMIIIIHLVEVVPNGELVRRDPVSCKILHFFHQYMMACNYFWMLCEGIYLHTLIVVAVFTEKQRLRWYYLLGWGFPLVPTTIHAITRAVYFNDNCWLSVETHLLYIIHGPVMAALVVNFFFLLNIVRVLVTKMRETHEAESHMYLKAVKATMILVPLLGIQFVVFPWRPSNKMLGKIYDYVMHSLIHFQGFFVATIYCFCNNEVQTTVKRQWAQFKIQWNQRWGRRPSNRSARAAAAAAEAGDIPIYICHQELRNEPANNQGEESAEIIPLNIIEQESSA
T2 sequence (looked up) 2: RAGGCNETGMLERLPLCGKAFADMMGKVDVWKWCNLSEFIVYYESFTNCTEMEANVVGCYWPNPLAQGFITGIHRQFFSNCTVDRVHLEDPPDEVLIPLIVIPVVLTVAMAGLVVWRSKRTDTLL
Description: cell-based or functional assay.

Numbered stars: 1 amine (or outer) side, 2 acyl side, 3 side chain; on linkers, the order of the positions; unused ones are H or OH. Bridge positions count the residues as written; N and C are the ends. * marks the point of attachment. C20 diacid = O=C(O)CCCCCCCCCCCCCCCCCCC(=O)*; γGlu = O=C(O)[C@H](CCC(=O)[*:2])N[*:1]

B1: N^α1-[(4S)-4-carboxy-4-(19-carboxynonadecanoylamino)butanoyl]-[Glu14,Arg17,Pro21,Pro27,Pro29]-h-amylin (peptide)
peptide: {C20 diacid-γGlu}-KCNTATCATQRLAEFLRHSSPNFGAIPSPTNVGSNTY-NH2
modifications: disulfide 2-7
SMILES: CC[C@H](C)[C@H](NC(=O)[C@H](C)NC(=O)CNC(=O)[C@H](Cc1ccccc1)NC(=O)[C@H](CC(N)=O)NC(=O)[C@@H]1CCCN1C(=O)[C@H](CO)NC(=O)[C@H](CO)NC(=O)[C@H](Cc1c[nH]cn1)NC(=O)[C@H](CCCNC(=N)N)NC(=O)[C@H](CC(C)C)NC(=O)[C@H](Cc1ccccc1)NC(=O)[C@H](CCC(=O)O)NC(=O)[C@H](C)NC(=O)[C@H](CC(C)C)NC(=O)[C@H](CCCNC(=N)N)NC(=O)[C@H](CCC(N)=O)NC(=O)[C@@H](NC(=O)[C@H](C)NC(=O)[C@@H]1CSSC[C@H](NC(=O)[C@H](CCCCN)NC(=O)CC[C@H](NC(=O)CCCCCCCCCCCCCCCCCCC(=O)O)C(=O)O)C(=O)N[C@@H](CC(N)=O)C(=O)N[C@@H]([C@@H](C)O)C(=O)N[C@@H](C)C(=O)N[C@@H]([C@@H](C)O)C(=O)N1)[C@@H](C)O)C(=O)N1CCC[C@H]1C(=O)N[C@@H](CO)C(=O)N1CCC[C@H]1C(=O)N[C@H](C(=O)N[C@@H](CC(N)=O)C(=O)N[C@H](C(=O)NCC(=O)N[C@@H](CO)C(=O)N[C@@H](CC(N)=O)C(=O)N[C@H](C(=O)N[C@@H](Cc1ccc(O)cc1)C(N)=O)[C@@H](C)O)C(C)C)[C@@H](C)O
notes: also called compound 37
With B1, in assay [1], the “Ratio hCT/hAmylin funct.” value was 4 and the “hCTR funct. EC50” value is 0.372 nM. In addition, the “hAmylin-R funct. EC50” value in assay [2] is 0.092 nM.

B2: N^α1-[(4S)-4-carboxy-4-(19-carboxynonadecanoylamino)butanoyl]-[Glu14,Arg17,Pro21,Pro27,Pro34]-h-amylin (peptide)
peptide: {C20 diacid-γGlu}-KCNTATCATQRLAEFLRHSSPNFGAIPSSTNVGPNTY-NH2
modifications: disulfide 2-7
SMILES: CC[C@H](C)[C@H](NC(=O)[C@H](C)NC(=O)CNC(=O)[C@H](Cc1ccccc1)NC(=O)[C@H](CC(N)=O)NC(=O)[C@@H]1CCCN1C(=O)[C@H](CO)NC(=O)[C@H](CO)NC(=O)[C@H](Cc1c[nH]cn1)NC(=O)[C@H](CCCNC(=N)N)NC(=O)[C@H](CC(C)C)NC(=O)[C@H](Cc1ccccc1)NC(=O)[C@H](CCC(=O)O)NC(=O)[C@H](C)NC(=O)[C@H](CC(C)C)NC(=O)[C@H](CCCNC(=N)N)NC(=O)[C@H](CCC(N)=O)NC(=O)[C@@H](NC(=O)[C@H](C)NC(=O)[C@@H]1CSSC[C@H](NC(=O)[C@H](CCCCN)NC(=O)CC[C@H](NC(=O)CCCCCCCCCCCCCCCCCCC(=O)O)C(=O)O)C(=O)N[C@@H](CC(N)=O)C(=O)N[C@@H]([C@@H](C)O)C(=O)N[C@@H](C)C(=O)N[C@@H]([C@@H](C)O)C(=O)N1)[C@@H](C)O)C(=O)N1CCC[C@H]1C(=O)N[C@@H](CO)C(=O)N[C@@H](CO)C(=O)N[C@H](C(=O)N[C@@H](CC(N)=O)C(=O)N[C@H](C(=O)NCC(=O)N1CCC[C@H]1C(=O)N[C@@H](CC(N)=O)C(=O)N[C@H](C(=O)N[C@@H](Cc1ccc(O)cc1)C(N)=O)[C@@H](C)O)C(C)C)[C@@H](C)O
notes: also called compound 32
On to B2, for which, in assay [1], the “Ratio hCT/hAmylin funct.” value amounted to 6.6 and the “hCTR funct. EC50” value came out at 0.327 nM. Besides, in assay [2], the “hAmylin-R funct. EC50” value is 0.05 nM.

B3: N^α1-[(4S)-4-carboxy-4-(19-carboxynonadecanoylamino)butanoyl]-[Glu14,Arg17,Pro21,Pro27,Pro37]-h-amylin (peptide)
peptide: {C20 diacid-γGlu}-KCNTATCATQRLAEFLRHSSPNFGAIPSSTNVGSNTP-NH2
modifications: disulfide 2-7
SMILES: CC[C@H](C)[C@H](NC(=O)[C@H](C)NC(=O)CNC(=O)[C@H](Cc1ccccc1)NC(=O)[C@H](CC(N)=O)NC(=O)[C@@H]1CCCN1C(=O)[C@H](CO)NC(=O)[C@H](CO)NC(=O)[C@H](Cc1c[nH]cn1)NC(=O)[C@H](CCCNC(=N)N)NC(=O)[C@H](CC(C)C)NC(=O)[C@H](Cc1ccccc1)NC(=O)[C@H](CCC(=O)O)NC(=O)[C@H](C)NC(=O)[C@H](CC(C)C)NC(=O)[C@H](CCCNC(=N)N)NC(=O)[C@H](CCC(N)=O)NC(=O)[C@@H](NC(=O)[C@H](C)NC(=O)[C@@H]1CSSC[C@H](NC(=O)[C@H](CCCCN)NC(=O)CC[C@H](NC(=O)CCCCCCCCCCCCCCCCCCC(=O)O)C(=O)O)C(=O)N[C@@H](CC(N)=O)C(=O)N[C@@H]([C@@H](C)O)C(=O)N[C@@H](C)C(=O)N[C@@H]([C@@H](C)O)C(=O)N1)[C@@H](C)O)C(=O)N1CCC[C@H]1C(=O)N[C@@H](CO)C(=O)N[C@@H](CO)C(=O)N[C@H](C(=O)N[C@@H](CC(N)=O)C(=O)N[C@H](C(=O)NCC(=O)N[C@@H](CO)C(=O)N[C@@H](CC(N)=O)C(=O)N[C@H](C(=O)N1CCC[C@H]1C(N)=O)[C@@H](C)O)C(C)C)[C@@H](C)O
notes: also called compound 8
Consider B3, for which, in assay [1], the “Ratio hCT/hAmylin funct.” value turned out to be 1.1 and the “hCTR funct. EC50” value turned out to be 0.087 nM. Moreover, in assay [2], the “hAmylin-R funct. EC50” value was 0.082 nM.

B4: N^α1-[(4S)-4-carboxy-4-(19-carboxynonadecanoylamino)butanoyl]-[Glu14,Arg17,Pro21,Pro27,Pro31]-h-amylin (peptide)
peptide: {C20 diacid-γGlu}-KCNTATCATQRLAEFLRHSSPNFGAIPSSTPVGSNTY-NH2
modifications: disulfide 2-7
SMILES: CC[C@H](C)[C@H](NC(=O)[C@H](C)NC(=O)CNC(=O)[C@H](Cc1ccccc1)NC(=O)[C@H](CC(N)=O)NC(=O)[C@@H]1CCCN1C(=O)[C@H](CO)NC(=O)[C@H](CO)NC(=O)[C@H](Cc1c[nH]cn1)NC(=O)[C@H](CCCNC(=N)N)NC(=O)[C@H](CC(C)C)NC(=O)[C@H](Cc1ccccc1)NC(=O)[C@H](CCC(=O)O)NC(=O)[C@H](C)NC(=O)[C@H](CC(C)C)NC(=O)[C@H](CCCNC(=N)N)NC(=O)[C@H](CCC(N)=O)NC(=O)[C@@H](NC(=O)[C@H](C)NC(=O)[C@@H]1CSSC[C@H](NC(=O)[C@H](CCCCN)NC(=O)CC[C@H](NC(=O)CCCCCCCCCCCCCCCCCCC(=O)O)C(=O)O)C(=O)N[C@@H](CC(N)=O)C(=O)N[C@@H]([C@@H](C)O)C(=O)N[C@@H](C)C(=O)N[C@@H]([C@@H](C)O)C(=O)N1)[C@@H](C)O)C(=O)N1CCC[C@H]1C(=O)N[C@@H](CO)C(=O)N[C@@H](CO)C(=O)N[C@H](C(=O)N1CCC[C@H]1C(=O)N[C@H](C(=O)NCC(=O)N[C@@H](CO)C(=O)N[C@@H](CC(N)=O)C(=O)N[C@H](C(=O)N[C@@H](Cc1ccc(O)cc1)C(N)=O)[C@@H](C)O)C(C)C)[C@@H](C)O
notes: also called compound 31
With B4, in assay [1], the “Ratio hCT/hAmylin funct.” value amounted to 6.4 and the “hCTR funct. EC50” value was determined as 0.717 nM. For the same molecule, in assay [2], the “hAmylin-R funct. EC50” value came out at 0.112 nM.

B5: N^α1-[(4S)-4-carboxy-4-(19-carboxynonadecanoylamino)butanoyl]-[His14,Arg17,Pro21,Pro27,Glu35]-h-amylin (peptide)
peptide: {C20 diacid-γGlu}-KCNTATCATQRLAHFLRHSSPNFGAIPSSTNVGSETY-NH2
modifications: disulfide 2-7
SMILES: CC[C@H](C)[C@H](NC(=O)[C@H](C)NC(=O)CNC(=O)[C@H](Cc1ccccc1)NC(=O)[C@H](CC(N)=O)NC(=O)[C@@H]1CCCN1C(=O)[C@H](CO)NC(=O)[C@H](CO)NC(=O)[C@H](Cc1c[nH]cn1)NC(=O)[C@H](CCCNC(=N)N)NC(=O)[C@H](CC(C)C)NC(=O)[C@H](Cc1ccccc1)NC(=O)[C@H](Cc1c[nH]cn1)NC(=O)[C@H](C)NC(=O)[C@H](CC(C)C)NC(=O)[C@H](CCCNC(=N)N)NC(=O)[C@H](CCC(N)=O)NC(=O)[C@@H](NC(=O)[C@H](C)NC(=O)[C@@H]1CSSC[C@H](NC(=O)[C@H](CCCCN)NC(=O)CC[C@H](NC(=O)CCCCCCCCCCCCCCCCCCC(=O)O)C(=O)O)C(=O)N[C@@H](CC(N)=O)C(=O)N[C@@H]([C@@H](C)O)C(=O)N[C@@H](C)C(=O)N[C@@H]([C@@H](C)O)C(=O)N1)[C@@H](C)O)C(=O)N1CCC[C@H]1C(=O)N[C@@H](CO)C(=O)N[C@@H](CO)C(=O)N[C@H](C(=O)N[C@@H](CC(N)=O)C(=O)N[C@H](C(=O)NCC(=O)N[C@@H](CO)C(=O)N[C@@H](CCC(=O)O)C(=O)N[C@H](C(=O)N[C@@H](Cc1ccc(O)cc1)C(N)=O)[C@@H](C)O)C(C)C)[C@@H](C)O
notes: also called compound 30
On to B5, for which, in assay [1], the “Ratio hCT/hAmylin funct.” value worked out at 12.6 and the “hCTR funct. EC50” value came to 1.68 nM. Also, in assay [2], the “hAmylin-R funct. EC50” value stood at 0.134 nM.

B6: N^α1-[(4S)-4-carboxy-4-[[(4S)-4-carboxy-4-(19-carboxynonadecanoylamino)butanoyl]amino]butanoyl]-[Glu14,Arg17,Pro21,Pro27,Pro37]-h-amylin (peptide)
peptide: {C20 diacid-γGlu-γGlu}-KCNTATCATQRLAEFLRHSSPNFGAIPSSTNVGSNTP-NH2
modifications: disulfide 2-7
SMILES: CC[C@H](C)[C@H](NC(=O)[C@H](C)NC(=O)CNC(=O)[C@H](Cc1ccccc1)NC(=O)[C@H](CC(N)=O)NC(=O)[C@@H]1CCCN1C(=O)[C@H](CO)NC(=O)[C@H](CO)NC(=O)[C@H](Cc1c[nH]cn1)NC(=O)[C@H](CCCNC(=N)N)NC(=O)[C@H](CC(C)C)NC(=O)[C@H](Cc1ccccc1)NC(=O)[C@H](CCC(=O)O)NC(=O)[C@H](C)NC(=O)[C@H](CC(C)C)NC(=O)[C@H](CCCNC(=N)N)NC(=O)[C@H](CCC(N)=O)NC(=O)[C@@H](NC(=O)[C@H](C)NC(=O)[C@@H]1CSSC[C@H](NC(=O)[C@H](CCCCN)NC(=O)CC[C@H](NC(=O)CC[C@H](NC(=O)CCCCCCCCCCCCCCCCCCC(=O)O)C(=O)O)C(=O)O)C(=O)N[C@@H](CC(N)=O)C(=O)N[C@@H]([C@@H](C)O)C(=O)N[C@@H](C)C(=O)N[C@@H]([C@@H](C)O)C(=O)N1)[C@@H](C)O)C(=O)N1CCC[C@H]1C(=O)N[C@@H](CO)C(=O)N[C@@H](CO)C(=O)N[C@H](C(=O)N[C@@H](CC(N)=O)C(=O)N[C@H](C(=O)NCC(=O)N[C@@H](CO)C(=O)N[C@@H](CC(N)=O)C(=O)N[C@H](C(=O)N1CCC[C@H]1C(N)=O)[C@@H](C)O)C(C)C)[C@@H](C)O
notes: also called compound 14
For the molecule B6, in assay [1], the “Ratio hCT/hAmylin funct.” value stood at 1.6 and the “hCTR funct. EC50” value stood at 0.238 nM. The “hAmylin-R funct. EC50” value in assay [2] was 0.146 nM.
